Data: US4016250A, “Method for testing for pregnancy” (Cornell Research Foundation, Inc., priority 1974, dated 1977)

Legend:
[1] = biological target: T1, receptor for HCG in plasma membranes from bovine corpora lutea (Bos taurus, UniProt Q28005); test: Radioreceptorassay of HCG: competition with 125I-HCG for plasma membrane receptor; type: binding
T1 construct: 100 g. of tissue from approximately 25 large corpora lutea; from tissue; host or cells: bovine corpora lutea of early pregnancy (slaughterhouse), plasma membrane fraction from zonal sucrose gradient
T1 sequence (Q28005 27-701): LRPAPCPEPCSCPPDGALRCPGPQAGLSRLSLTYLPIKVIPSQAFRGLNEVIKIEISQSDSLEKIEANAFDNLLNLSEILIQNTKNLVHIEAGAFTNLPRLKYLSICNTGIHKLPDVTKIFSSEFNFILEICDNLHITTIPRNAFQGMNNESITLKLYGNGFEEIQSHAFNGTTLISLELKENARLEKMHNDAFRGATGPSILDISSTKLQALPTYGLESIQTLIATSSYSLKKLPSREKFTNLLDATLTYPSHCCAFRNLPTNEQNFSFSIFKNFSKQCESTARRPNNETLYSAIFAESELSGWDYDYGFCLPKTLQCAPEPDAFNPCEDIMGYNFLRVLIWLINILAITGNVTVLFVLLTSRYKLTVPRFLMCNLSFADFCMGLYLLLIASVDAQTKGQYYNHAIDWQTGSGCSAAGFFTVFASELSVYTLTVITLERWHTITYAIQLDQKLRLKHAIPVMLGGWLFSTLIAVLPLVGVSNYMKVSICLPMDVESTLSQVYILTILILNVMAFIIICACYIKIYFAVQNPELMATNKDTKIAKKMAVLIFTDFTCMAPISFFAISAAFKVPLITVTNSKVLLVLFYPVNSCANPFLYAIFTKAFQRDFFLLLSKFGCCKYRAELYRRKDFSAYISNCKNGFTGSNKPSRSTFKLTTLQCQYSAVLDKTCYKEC
Description: All procedures in the preparation of plasma membranes were carried out in an ice bath or at 4° C. Fresh bovine ovaries from early pregnancy (first trimester: fetus length from crown to rump up to 22 cm.) were obtained from the slaughter house and stored in liquid nitrogen until processed. In a typical experiment, 100 g. of tissue from approximately 25 large corpora lutea were cut into small pieces with a sharp steel blade and ground in 500 ml. of 10 mM. Tris-HCl buffer of pH. 7.8 containing one mM. of MgCl2, one MM. dithiothreitol, 10,000I.U. of Trasylol (FBA Pharmaceuticals) per liter and 0.25 M. sucrose. The homogenate was filtered through two layers of cheese cloth and the larger particles were reprocessed in 500 ml. of the buffer. […] The homogenate was centifuged at 650 xg. for 20 minutes in a Sorvall refrigerated centrifuge (RC B, Rotor GSA) to remove intact cells, cell debris and nuclei. The 650 × g. supernatant was again centrifuged at 13,000 g. for 20 minutes in the same centrifuge. […]
In Table I, the incubation was performed for 30 minutes at 37° C. in a Dunaboff water bath shaker. […] The supernates were aspirated and the pellets were counted in a Packard Autogamma counter with a 51% efficiency for I^125. The standard curves and the hormonal concentration in the plasma samples were calculated by a time sharing IBM computer using logit-log transformations.

[2] = biological target: T2, PRL receptor sites in ovarian homogenates (Bos taurus, UniProt Q28172); test: Specificity of 125I-hPRL binding: displacement by unlabeled hormones; set-up: species or system bovine
T2 construct: from tissue; host or cells: ovarian homogenate (bovine, from the preparation section)
T2 sequence (Q28172 25-581): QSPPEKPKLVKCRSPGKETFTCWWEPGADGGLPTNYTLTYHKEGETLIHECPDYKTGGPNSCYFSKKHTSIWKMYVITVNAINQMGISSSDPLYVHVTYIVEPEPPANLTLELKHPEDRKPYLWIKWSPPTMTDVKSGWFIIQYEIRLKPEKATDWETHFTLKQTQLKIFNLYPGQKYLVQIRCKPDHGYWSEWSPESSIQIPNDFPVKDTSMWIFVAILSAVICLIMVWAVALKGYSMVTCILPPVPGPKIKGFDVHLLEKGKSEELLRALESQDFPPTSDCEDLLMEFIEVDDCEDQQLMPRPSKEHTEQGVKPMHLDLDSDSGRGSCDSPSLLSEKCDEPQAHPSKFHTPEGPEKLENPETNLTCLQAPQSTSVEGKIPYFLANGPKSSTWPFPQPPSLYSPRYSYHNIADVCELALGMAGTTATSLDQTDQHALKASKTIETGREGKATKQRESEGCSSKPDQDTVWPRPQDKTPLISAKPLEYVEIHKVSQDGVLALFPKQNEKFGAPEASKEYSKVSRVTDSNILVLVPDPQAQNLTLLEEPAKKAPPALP
Description: A reaction mixture containing 100 ul of incubation buffer containing 10 IU Trasylol (FBA Pharmaceuticals, New York, New York), 50 ul of receptor preparation equivalent to 1-300 ug of protein and 100 ul of ^125 I-hPRL (SA; 50-70 uCi/ug) were incubated at 37° C. for 2 hours in the absence and in the presence of 1 ug of unlabeled bovine PRL. At the end of incubation, 1 ml of ice cold buffer was added to all tubes and tubes were centrifuged at 5,000 rpm for 20 minutes. The supernatants were aspirated. The pellets containing receptor bound hormones were counted in an Automamma counter with a 51% efficiency for ^125 I (Packard Instrument Company, Downers Grove, Illinois). Specific binding was calculated as the difference of binding in the tubes with and without unlabeled PRL.

Substance | logit-log line of radioreceptorassay response compared with HCG ([1]; same system, different concentrations) | potency in displacing receptor-bound 125I-hPRL relative to hPRL [2] | displacement of 125I-hPRL bound to receptor protein ([2]; various concentrations) | cross-reaction in the radioreceptorassay of HCG (FIG. 2) ([1]; FIG. 2 legends: TSH, HGH, PRL are plasma from hypothyroid, acromegalic, postpartum lactation subjects)
LH from rat: sample of luteinizing hormone from rat | parallel to the line for HCG | – | – | –
human growth hormone [hGH] | – | 0.5-1 % of hPRL | capable of displacing | no cross-reaction
